± gives the standard deviation of the averaged measurements.
Tested on: ATP
Test: switch fluorescence ratio, 500 uM ATP over buffer (Cy3 cluster intensity, sum of 5 cycles each) (fold (ratio)); higher = stronger signal-on switching upon ATP binding; sequences stand for … in TCGTCGGCAGCGTCAGATGTGTATAAGAGACAGTTTTTTTTTTTTTTTTTTTTTTTTT…TC
Conditions: aptamer strand: ATP DNA aptamer (quencher-CACCTGGGGGAGTATTGCGGAGGAAGG + anchor), 100 nM annealed; ATP concentration: 500 uM
Method in brief: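 Clusters with intensities outside 100-1000 RFU were excluded. The remaining Cy3-labelled switching-strand clusters on a modified Illumina MiSeq flow-cell had been annealed to 100 nM quencher-labelled ATP aptamer and imaged in selection buffer, then after 15 min with 500 uM ATP at 22 °C, for five cycles separated by NaOH stripping and re-annealing. The fluorescence ratio, averaged per switch-domain sequence, is each cluster's summed target-cycle Cy3 intensity over its summed buffer-cycle Cy3 intensity.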
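Further: ATP exposure 15 min at 22 °C before imaging.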

Row | Sequence | switch fluorescence ratio
1 | TAGGGGTTTT | 1.01 ± 0.024
2 | TAGGGTAAGG | 0.97 ± 0.035
3 | TAGGGTAATT | 0.9965 ± 0.0041
4 | TAGGGTAGCG | 0.99 ± 0.012
5 | TAGGGTATG | 0.983 ± 0.053
6 | TAGGGTCGGG | 0.9466 ± 0.0037
7 | TAGGGTCTGT | 0.999 ± 0.022
8 | TAGGGTGCGG | 1.03 ± 0.021
9 | TAGGGTGCGT | 1 ± 0.027
10 | TAGGGTGCTT | 1.04 ± 0.036
11 | TAGGGTTCTT | 1.03 ± 0.029
12 | TAGGTAAGGT | 1.03 ± 0.029
13 | TAGGTAGAGT | 0.9899 ± 0.006
14 | TAGGTAGCGG | 0.9996 ± 0.0076
15 | TAGGTATATC | 0.9843 ± 0.006
16 | TAGGTATTGT | 1.003 ± 0.0091
17 | TAGGTGACTG | 0.982 ± 0.037
18 | TAGGTGCATA | 1.03 ± 0.043
19 | TAGGTGGCGC | 1.08 ± 0.013
20 | TAGGTGTCAT | 1.15 ± 0.32
21 | TAGGTGTTTT | 1.05 ± 0.047
22 | TAGGTTGAGT | 0.996 ± 0.061
23 | TAGGTTGGTC | 1.02 ± 0.064
24 | TAGGTTTGCG | 0.994 ± 0.053
25 | TAGTAAATCG | 1.007 ± 0.0078
26 | TAGTAAATGG | 0.999 ± 0.017

Row | Sequence | switch fluorescence ratio
27 | TAGTAATCTT | 1.003 ± 0.0092
28 | TAGTAATGTG | 0.993 ± 0.022
29 | TAGTAATTGG | 0.987 ± 0.029
30 | TAGTACTGTG | 0.998 ± 0.017
31 | TAGTAGATGT | 1.01 ± 0.036
32 | TAGTAGGGGA | 1.01 ± 0.039
33 | TAGTATGGTA | 1.01 ± 0.011
34 | TAGTATTAGA | 0.993 ± 0.031
35 | TAGTCATGCG | 1.04 ± 0.026
36 | TAGTCCAAAT | 0.9738 ± 0.0018
37 | TAGTCGAGAT | 0.989 ± 0.029
38 | TAGTCGCCGA | 0.986 ± 0.017
39 | TAGTCGGCGC | 1 ± 0.047
40 | TAGTCTAGGT | 1.02 ± 0.025
41 | TAGTCTGTTC | 1.01 ± 0.045
42 | TAGTCTTTAG | 1.01 ± 0.0072
43 | TAGTGAGGGT | 1.01 ± 0.021
44 | TAGTGAGTAC | 0.93 ± 0.11
45 | TAGTGATACG | 0.986 ± 0.05
46 | TAGTGATGGT | 0.973 ± 0.029
47 | TAGTGGAAAA | 1.02 ± 0.077
48 | TAGTGGATGG | 1 ± 0.029
49 | TAGTGGGAAT | 0.968 ± 0.032
50 | TAGTGGGGAC | 0.9677 ± 0.0027
51 | TAGTGTAGGC | 1.03 ± 0.014
52 | TAGTGTATTC | 0.989 ± 0.026

Row | Sequence | switch fluorescence ratio
53 | TAGTGTCTAG | 0.97 ± 0.07
54 | TAGTGTGGG | 0.99 ± 0.024
55 | TAGTGTTTGG | 1.02 ± 0.073
56 | TAGTTAATTT | 1.01 ± 0.034
57 | TAGTTACCCG | 0.979 ± 0.045
58 | TAGTTACTGG | 1.05 ± 0.021
59 | TAGTTAGGAG | 0.9945 ± 0.0081
60 | TAGTTAGGCG | 0.959 ± 0.028
61 | TAGTTATGTT | 0.96389 ± 0.00072
62 | TAGTTATTAC | 1.08 ± 0.14
63 | TAGTTATTTG | 0.993 ± 0.044
64 | TAGTTCGGGG | 1.01 ± 0.024
65 | TAGTTCTGTT | 0.983 ± 0.0077
66 | TAGTTGGTGG | 0.954 ± 0.046
67 | TAGTTTATCA | 1.001 ± 0.01
68 | TAGTTTCGGC | 0.958 ± 0.011
69 | TAGTTTGGCT | 1.02 ± 0.047
70 | TAGTTTGGGA | 1.01 ± 0.03
71 | TAGTTTGGGG | 0.999 ± 0.032
72 | TAGTTTGGGT | 0.974 ± 0.012
73 | TAGTTTGTTA | 0.987 ± 0.027
74 | TAGTTTTAT | 0.973 ± 0.016
75 | TAGTTTTCGT | 0.9817 ± 0.0012
76 | TAGTTTTGTA | 0.971 ± 0.05
77 | TAGTTTTTAA | 1.01 ± 0.008
78 | TAGTTTTTCT | 0.971 ± 0.022

Row | Sequence | switch fluorescence ratio
79 | TAGTTTTTTC | 0.99 ± 0.021
80 | TATAAAAACG | 1.11 ± 0.2
81 | TATAAAAATT | 1.02 ± 0.025
82 | TATAAAAGAA | 1.04 ± 0.053
83 | TATAAAAGAC | 1.018 ± 0.01
84 | TATAAAATGT | 0.993 ± 0.036
85 | TATAAAGCAG | 1.03 ± 0.024
86 | TATAAAGGGC | 1.01 ± 0.054
87 | TATAAAGGGG | 1 ± 0.025
88 | TATAAATGAA | 0.9921 ± 0.0043
89 | TATAAATGAT | 1.06 ± 0.047
90 | TATAAATTTG | 1.01 ± 0.016
91 | TATAACATAT | 1.03 ± 0.041
92 | TATAACATG | 1.009 ± 0.0025
93 | TATAAGAGCC | 0.984 ± 0.043
94 | TATAAGGGGC | 0.997 ± 0.027
95 | TATAAGTGGT | 0.992 ± 0.023
96 | TATAAGTGTT | 1.002 ± 0.0067
97 | TATAATCCCT | 1.02 ± 0.083
98 | TATAATTAAT | 0.982 ± 0.029
99 | TATACCATTT | 1.01 ± 0.015
100 | TATACCTTAA | 1.051 ± 0.0042
101 | TATACTATTG | 1.01 ± 0.048
102 | TATACTCAGC | 1.03 ± 0.014
103 | TATACTGTTG | 0.976 ± 0.021
104 | TATACTTGCC | 1.04 ± 0.06

Row | Sequence | switch fluorescence ratio
105 | TATACTTTAT | 1.02 ± 0.037
106 | TATAGACAGG | 0.989 ± 0.057
107 | TATAGAGGTT | 0.992 ± 0.015
108 | TATAGCAGGG | 1.03 ± 0.018
109 | TATAGCTACC | 1.13 ± 0.043
110 | TATAGGGAAA | 1.09 ± 0.11
111 | TATAGGGAAG | 1.02 ± 0.026
112 | TATAGGGAGC | 0.947 ± 0.017
113 | TATAGGGCGG | 1.13 ± 0.21
114 | TATAGGGGAT | 1.032 ± 0.0068
115 | TATAGGGGGC | 1.03 ± 0.05
116 | TATAGGTGTT | 1.05 ± 0.028
117 | TATAGTCTA | 1.01 ± 0.031
118 | TATAGTGGAG | 1.024 ± 0.0069
119 | TATATAGAGC | 1.02 ± 0.011
120 | TATATAGCGC | 0.983 ± 0.044
121 | TATATAGGTA | 1.01 ± 0.043
122 | TATATATAGA | 1 ± 0.041
123 | TATATATATG | 0.955 ± 0.031
124 | TATATATTTA | 0.988 ± 0.024
125 | TATATCAGTT | 1.007 ± 0.0087
126 | TATATGACGG | 0.997 ± 0.027
127 | TATATGGATT | 0.999 ± 0.015
128 | TATATGGCCC | 1.02 ± 0.02
129 | TATATGTATC | 0.9678 ± 0.0011
130 | TATATTAAGA | 1.01 ± 0.016

Row | Sequence | switch fluorescence ratio
131 | TATATTAGCC | 1.03 ± 0.039
132 | TATATTGAAC | 1.022 ± 0.0028
133 | TATATTGCGT | 0.9711 ± 0.0073
134 | TATATTGTA | 0.986 ± 0.03
135 | TATATTTGTT | 0.997 ± 0.039
136 | TATATTTTAT | 0.982 ± 0.035
137 | TATATTTTGC | 0.994 ± 0.026
138 | TATATTTTGT | 1.02 ± 0.016
139 | TATCAAAGAT | 1 ± 0.02
140 | TATCAATTTT | 1 ± 0.03
141 | TATCACATTT | 1.02 ± 0.018
142 | TATCACTAGG | 1.02 ± 0.0022
143 | TATCACTTTC | 1.06 ± 0.033
144 | TATCATGTGT | 0.977 ± 0.03
145 | TATCATTTTT | 1 ± 0.011
146 | TATCCACATT | 1.02 ± 0.019
147 | TATCCATGGG | 0.978 ± 0.03
148 | TATCCGACAT | 1.15 ± 0.039
149 | TATCCGTGCT | 1 ± 0.029
150 | TATCCTGGCT | 0.9961 ± 0.0089
151 | TATCGAAGCG | 0.969 ± 0.058
152 | TATCGAAGGT | 0.986 ± 0.017
153 | TATCGAATTA | 0.987 ± 0.017

— the supplement of paper PMC10126150
